Measurements reported in patent US20220324964A1 (GENERAL HOSPITAL, published 2022).

T1: his-tagged recombinant TACI (UniProt O14836 1-165, limits assumed)
T1 construct: Analyte in the SPR assay; also called TNFRSF13B; not shown: his tag
T1 sequence (looked up): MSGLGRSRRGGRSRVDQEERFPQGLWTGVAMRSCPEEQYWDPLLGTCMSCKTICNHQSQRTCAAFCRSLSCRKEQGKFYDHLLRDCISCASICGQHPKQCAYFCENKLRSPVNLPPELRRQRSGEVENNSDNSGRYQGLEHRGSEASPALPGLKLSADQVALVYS

T2: soluble BCMA, labeled (UniProt Q02223 1-54, fluorescent label (not specified))
T2 construct: Labeled soluble protein used to stain CAR T cells in flow cytometry; also called sBCMA; fluorescent BCMA
T2 sequence (looked up): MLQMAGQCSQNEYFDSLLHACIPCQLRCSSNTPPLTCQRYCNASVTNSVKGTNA

T3: soluble TACI protein, fluorescently labeled (UniProt O14836 1-165, limits assumed, fluorescent label (not specified))
T3 construct: Labeled soluble protein used to stain CAR T cells in flow cytometry; also called sTACI; fluorescent TACI
T3 sequence (looked up): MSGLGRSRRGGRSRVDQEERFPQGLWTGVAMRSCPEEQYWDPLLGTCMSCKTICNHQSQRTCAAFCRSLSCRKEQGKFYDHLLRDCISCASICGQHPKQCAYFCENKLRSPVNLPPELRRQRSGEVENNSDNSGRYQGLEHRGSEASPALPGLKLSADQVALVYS


How the values were obtained:
[1] = target: T1, his-tagged recombinant TACI; assay: SPR; antibody captured on anti-mouse IgG chip, his-tagged recombinant TACI as analyte
Experimental: The antibodies were analyzed by surface plasmon resonance according to the following procedure (FIG. 2). The binding of his-tagged recombinant TACI to anti-TACI antibody was captured to 120 RU (for TACI) on anti-mouse IgG.

soluble BCMA, labeled = target: T2, soluble BCMA, labeled; assay: flow cytometry, labeled soluble BCMA (8 to 1000 ng) on CAR T cells, gated on live CAR T cells
Experimental: The anti-BCMA, anti-TACI (H/L), and anti-TACI (L/H) CAR T cells were evaluated for their capabilities to bind to soluble TACI (sTACI), soluble BCMA (sBCMA), and soluble APRIL (sAPRIL) was determined. T cells were washed 4 times in PBS 4% BSA, and incubated with labeled protein on ice at 4° C. for 40 min. After incubation, cells were washed twice with FACS buffer and flow cytometry was performed gating on live, CAR T cells to calculate protein binding. As evident in FIG. 12A, anti-TACI (L/H) CAR T cells have higher binding efficiency to soluble TACI than anti-TACI (H/L) CAR T cells.

[2] = target: T3, soluble TACI protein, fluorescently …; assay: flow cytometry, fluorescent soluble TACI titrated 0.01 to 1000 nM on CAR T cells, percentage TACI+, N=3
Experimental: (§1) FIGS. 25A-25B show measurements of binding of soluble TACI protein to untransduced T cells, and to T cells expressing anti-TACI H-L, anti-TACI L-H, or anti-BCMA. Cells were incubated with fluorescent soluble TACI protein at various concentrations, after which fluorescence of the cells was measured using flow cytometry, represented as percentage of cells positive for TACI (FIG. 25A) or as median fluorescence intensity (MFI) relative to signal measured in untransduced cells (FIG. 25B).
(§2) To evaluate the expression, binding efficacy, and binding specificity of anti-TACI CARs, normal donor T cells were transduced with anti-TACI H-L, anti-TACI L-H, or anti-BCMA and transduction efficiency was evaluated by measuring the percentage of each T cell population positive for mCherry expression by flow cytometry. […] To compare binding efficiency and specificity of different CARs, T cells expressing each CAR construct were incubated with fluorescently-labeled soluble TACI and analyzed by flow cytometry.

[3] = target: T3, soluble TACI protein, fluorescently …; assay: flow cytometry, fluorescent soluble TACI titrated 0.01 to 1000 nM on CAR T cells, MFI relative to untransduced cells, N=3
Experimental: as §1, §2

[4] = target: T3, soluble TACI protein, fluorescently …; assay: flow cytometry, fluorescent soluble TACI titrated 0.01 to 1000 nM on CAR T cells, percentage TACI+ (panel Soluble binding of TACI), N=3
Excerpt: (§3) The top two plots show binding of fluorescent BCMA and the bottom two plots show binding of fluorescent TACI to anti-TACI H-L CAR, anti-TACI L-H CAR, anti-BCMA, anti-TACI/anti-BCMA bispecific CAR, anti-BCMA/anti-TACI bispecific CAR, or untransduced T cells. The two left plots show the percentage of cells positive for BCMA or TACI. The two right plots show median fluorescence intensity for each cell population relative to untransduced cells.
(§4) To test the efficacy of bispecific CAR T cells to bind their respective antigens, T cells were either left untransduced, or transduced with anti-TACI H-L CAR, anti-TACI L-H CAR, anti-BCMA CAR, anti-TACI/anti-BCMA bispecific CAR, or anti-BCMA/anti-TACI bispecific CAR, and were tested for their binding of soluble antigens.

[5] = target: T3, soluble TACI protein, fluorescently …; assay: flow cytometry, fluorescent soluble TACI titrated 0.01 to 1000 nM on CAR T cells, MFI relative to untransduced cells (panel Amount of soluble TACI binding), N=3
Excerpt: as §3, §4

Row | Kd [1] [nM] | koff [1] [s⁻¹] | kon [1] [M⁻¹ s⁻¹] | binding result (soluble BCMA, labeled) | EC50 (read off the curve) [2] [nM] | EC50 (read off the curve) [3] [nM] | EC50 (read off the curve) [4] [nM] | EC50 (read off the curve) [5] [nM] | Binder
1 | 0.861 | 0.00121 | 1.41e+06 |  |  |  |  |  | anti-TACI antibody (monoclonal antibody from hybridoma, Example 1) (antibody, V domains shown, also called anti-TACI mAb) VH: EVQLQQSGPELVKPGASVKISCKTSGYTFTESTIHWVKQSHGKSLEWIGGISPNNGGSPFNQKFKGKATLTVDKSSSTVYMELRSLSSEDSAVYYCAKWVRGAMDFWGQGTSVTVSS VL: not shown
2 |  |  |  | no binding (tested: 1000 ng) | ~2 | ~8 | ~2 | ~8 | Anti-TACI (H/L) CAR expressed on T cells (other, Chimeric antigen receptor: anti-TACI scFv VH-(G4S)4-VL, CD8 hinge/TM, 4-1BB, CD3zeta; The vector also expresses mCherry; also called Anti-TACI CAR (H-L)) EVQLQQSGPELVKPGASVKISCKTSGYTFTESTIHWVKQSHGKSLEWIGGISPNNGGSPFNQKFKGKATLTVDKSSSTVYMELRSLSSEDSAVYYCAKWVRGAMDFWGQGTSVTVSSGGGGSGGGGSGGGGSGGGGSDIVLTQSPASLAVSLGQRATISCRASESVDYYGMSLMNWFQQKPGQPPKLVIYAASNQGSGVPARFSGSGSGTDFRLNIHPLEEDDTGMYFCQQSKEAPPTFGGGTKLEIKTTTPAPRPPTPAPTIASQPLSLRPEACRPAAGGAVHTRGLDFACDIYIWAPLAGTCGVLLLSLVITLYCKRGRKKLLYIFKQPFMRPVQTTQEEDGCSCRFPEEEEGGCELRVKFSRSADAPAYQQGQNQLYNELNLGRREEYDVLDKRRGRDPEMGGKPRRKNPQEGLYNELQKDKMAEAYSEIGMKGERRRGKGHDGLYQGLSTATKDTYDALHMQALPPR
